According to the nanobody polyreactivity screen of Harvey et al. (2022):

Assay: yeast display, Sf9 membrane polyspecificity reagent, FACS + sequencing; frameworks hold sequencing errors
Outline: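 Genes from sorted yeast were amplified by colony PCR, read by MiSeq 2 × 250 sequencing and filtered on CDR length. These cells carried a synthetic nanobody library in Saccharomyces cerevisiae BJ5465 and were sorted by FACS into low and high (top ~1%) gates on anti-HA and streptavidin fluorescence. Polyreactivity is labelled according to the gate of origin.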

Sequence	polyreactivity (PSR sort gate)
QVQLVESGGGLVQAGGSLRLSCAASGSIFDTYTMGWYRQAPGKERELVAAITSGTTTTYADSVKGRFTISRDNAKNTVYLQMNSLKPEDTAVYYCAARTSGSFDYCGQGTQVTVSS	low polyreactivity
QVQLVESGGGLVQAGGSLRLSCAASGRTFTWYAMGWYRQAPGKEREFVAAISFSGGSTYYADSVKGRFTISRDYAKNTVFLQMNSLKPEDTAVYYCARPSGDAWEGPRMDYWGQGTQVTVSS	low polyreactivity
QVQLVESGGVLVQAGGSLRLSCAASGRIFLRNVMGWYRQAPGKERELVAAISSSGGRTYYADSVKGRFTISRDNAKNSVYLQMNSLKPEDTAVYYCANLSSSRLPSEMEYWGQGTQVTVSS	high polyreactivity
QVQLVESGGGLVQAGGSLRLSCAASGRTFTYYGMGWYRQAPGKERELVAAISGGGDTNYADSVKGRFTISRDNAKNTVYLQMNSLKPEDTAGYYCAAKRRYYWDYWFYEYDYWGQGTQVTVSS	low polyreactivity
QVQLVESGGGLVQAGGSLRLSCAASGRTFFPNAMGWYRQAPGKERELVASITSRGGGTYYADSVKGRFTISRDYAKNTVYLQMNSLKPEDTAVYYCADDRYYFSPGYNWWSEGYDYWGQGTQVTVSS	low polyreactivity
QVQLVESRGGLVQAGGSLRLSCAASGRIFYGYAMGGYRQAPGKERELVAGISKRGGTTRYADSVKGRFTISRDNAKNTVYLQMNSLKPEETAVSSCAAESFGLYASPGEEYWGQGTQVTVSS	high polyreactivity
QVQLVESGGGLVQAGGSLRLSCAASGRIFIPYALGWYRQAPGKERELVAAISYRGGSTYYADSVKGRFTISRDNAKNTVYLQMNSLKPEDTAVYYCANYDYWGQGTQVTVSS	high polyreactivity
QVQLVESGGGLVQAGGSLRLSCAASGFTFIRYAMGWYRPAPGKERELVATITRRGGSTYYADSVKGRFSISRDNAKNTVYLQMNCLKPEDTAVYYCNRDYVTYGKYYYWGQGTQVTVSS	high polyreactivity
QVQLVESGGGLVQAGGSLRLSCAASGITFDWNAMGWYRQAPGKEREFVASISRGSGGTYYADSVKGRFTISRDNAKNTVYLQMNSLKPEDTAVYYCAAAVGNTDREYDYWGQGTQVTVSS	low polyreactivity
QVQLVESGGRLVQAGGSLRLSCAASGSTFAANAMGRYRQDPGKDRELVAGITSSGGSTYYADSVKGRFTISRDNAKNTDYLQLTSLKPEDNAVYYCNKDNARYVRMYDSWGQGTQVTVSS	low polyreactivity
QVQLVESGGGLVQAGGSLRLSCAASGSTFDYYAMGWYRQAPGKERELVAAISRSGGRTYYADSVKGRFTISRDNAKNTVYLQMNSLKPEDTAVYYCAADKPVIGTYSRYDYWGQGTQVTVSS	high polyreactivity
QVQLVESGGGLVQEGGSLRIICAASGFIFYYYAMGWYRQAPGKERELVAGISRRGGSTYYADSVKGRFTISRDNAKNTVYLQMNSLKPEDTAVYYCAALGDDATSYGYWGQGTQVTVSS	high polyreactivity
QDQLVESGGGLVQAGGSLRLSFAAYGSTFIVYAMGWYRHAPGKERDLVAAISLDGGSTYYADSVKGRFTISLDNAKNNVYLQMNSLKPEDTAVYYCNADYYANSITYDSWGQGTQVTVSS	low polyreactivity
QVQLVESGGGLVQAGGSLRLSCAASGSTFNTYAMGWYRQAPGKERELVAAITWRGGRTYYADSVKGRFTISRDNAKNTVYLQMNSLKPEDTAVYYCNTLRPRLDGVYGYDYWGQGTQVTVSS	high polyreactivity
QVQLVESGGGLVQAGGSLRLSCASSGSILVHYAMGRYRQAPGKERELFAAISRGGSTNYADSVKGRFTISRDNAKNTVYLQMNSLKPEDTAVYFCAARHGQSWQWLEYDYWGHGTQVTVSS	low polyreactivity
QVQLVESGGGLVQAGGSLRLSCAASGLILPDYAMGWYRQAPGKERELVAAISQRGGSTYYADSVKGRFTISRDNAKNSVYLQMYSLKPEDTAVYYCNALFRLRAYAEMDYWGQGTQVTVSS	high polyreactivity
QVQLVESGGGLVQAGGSLRLSCAASGRIFYPYAMVWYRQAPGKERELVAGISFRDGSRYYADSVKGRFTISRDNAKNTVYLQMNSLKPEDTAFYYSAAVGQTHTTSPLSTKFDYWGQGTQVTVSS	low polyreactivity
QGQLVESGGALVQAGGSLRLSCAPSGSTFGVYTMGWYRQAPGKERELVAAITKSGGSTYYADSVKGRFTISRDNAKNTVYLQMNSLKPEDTAVYYCNTDYGSYLYYRYGYWGQGTQVTVSS	low polyreactivity
QVQLLESGGGLVQPGGILRLSCAASGSTFVRYAMGWYRQAPGKERELVAAISYRGGSTYYADSVKGLFTISRDNANNSVYLELYSLKPEDTAVYYCAAESRHVEGEYWGQGTQVTVSS	high polyreactivity
QVQLVESGGGLVQAGGSLRLSCAASGFTFSDNAMVWYRQAPGKERELVAAISEGSGITYYADSVKGRFTISRDNAKNTVTLQMNSLKPEDNAVYYCAADWLSKYDYWGQGTQVTVSS	low polyreactivity
QVQLVESGGGLVQAGGSLRLSCAASGRIFKPYAMGWYRQAPGKERELVASISRRGGSTYYADSVKGRFTISRDNAKNTVYLQMNSLKPEDTAVYYCNASGTYISLGYDYWGQGTQVTVSS	high polyreactivity
QVQLVESGGGLVQAGGSLRLTCAASGITFTIYAMGWYRLATGKERELVAAISWSGTSTYYADSVKGRFTISRDNAKNTVYLKMNSLKQEDTAVYYCAADYTTSQGDSELDYWGQGTQVTVSS	low polyreactivity

Sequence	polyreactivity (PSR sort gate)
QVQLVESGGGLVQAGGSLRLSCAASGIFYYNAMGWNIQAPGKERELVAAISYSGGRTYYADSVKGRFTISRDNAKNTVYLQMNSLKPEDTAVYYCNAAARYGRLGGDYWGQGTQVTVSS	high polyreactivity
QVQLVESGGGLVQAGGSLRLSCAASGRIFTGNVMGLYRQAPGKERELVAAITYRGGSTYYADSVKGRFTISRDNAKNTVYLQMNSLKPEDTAVYYCNTGWDPYGYDYWGQGTQVTVSS	low polyreactivity
QVQLVDSGRGLVQAGGSLRLSCAASGFIFNPYVMGWYRQAPGKERELVAVITSGGSTNYADSVKGRFTISRDNAKNTVYLQMNSLKPEDTAVYYCNVDRRPYYVWRVTYDYWGQGTQVTVSS	low polyreactivity
QVQLVESGGGLVQAGGSLRLSCAASGGNFESNAMGWYRQAHGKERELVAAISWSGGTTYYADSVKGRFTISRDNAKNTDFLQMNSLKPEDTAVYYCAKVPFSYRSFGYWGQGTQVTVSS	low polyreactivity
QVQLVESGGGLVQAGGSLRLSCAASGSTFYGKAMGWYRQAPGKRELLAAITWSGGSTYYADSVKGRFTISRDNAKNTVYLQMNSLKPEDTAVYYCAARNPKSGYNYWGQGTQVTVSS	low polyreactivity
QVQLVESGGGLVQAGGSLRLSCAASGRIFSSNAMGWYRQAPGKEWELVAAITRGGSTNYADSVKGRFTISRDNAKNTDYLQMNSLKPEDTAVYYCNVDYYVFNHQGHLNYDYWGQGTQVTVSS	high polyreactivity
QVQLVESGGGLVQAGGSLRLSCAASGSTFTSYAMGWYRQAPGKERELVASITRSGGRTYYADSVKGRFTISRDNAKNTVYLQMNSLKPEDTAVYYCARRYPGGYYWGQGTQVTVSS	high polyreactivity
QVQLVESGGGLVQAGGSLRLSCAASGSIFFAYAMGRYRQAPGKERELVAAITSGVSTNYADSVKGRFTISRDNAKNTVYLQMNILKPEDTAVYFCNADFDYGFDAGVAVQVVINVYWGQGTEVTVSS	low polyreactivity
QVQLVESGGGLVQAGGSLRLSCAASGITFRRYTMGWYRQAPGKERELVATISLSDGNTYYADSVKGRFTISRDNAKNTVYLQMNSLKPEDTAVYYCNALHTWHQTYYYWGQGTQVTVSS	low polyreactivity
QVQLVESGGGLVQAGGSLRLSCAASGITFDYYAMGWYRQAPGKERELVASISSDSSTYYADSVKGRFTISRDNAKNTVYLQMNSLKPEDTAVYYCNAGDSEYTYYGYYAFDYWGQGSQVTVSS	low polyreactivity
QVQLVESGGGLVQAGGSLRLSCAASGFTFRQYAMGWYRQAPGKERELVAAISSGGSTYYADSVKGRFTISRDNAKNTVYLQMNSLKPEDTAVYYCNAVARYYVAYDMYWGQGTQVTVSS	high polyreactivity
QVHLVESGGGLVQAGGSRRLSCAASGFTLSYYAMGWYRQAPGKERELVATISRVGTTYADSVKGRFTISRDNAKNTVYLQMNSLKPEDTAVYYCAVRSRWPYYFTRGVREGDYWGQGTQVTVSS	high polyreactivity
QVQLVESGGGLLKEGGSLRLICAASGRIFVGYDMGWYRQEPGKERELVAAISSDGGSTYYSDSVKGRFTISRDNAKNTVYLQMNSVKPEDTAFYYCAADDFSTVEYDYWGQGTQVNVSS	low polyreactivity
QVQLVESGGGLVQAGGSLRLSCAASGRIFGCYSMGWYRPAPGKEREEVAAITWSGTSTYYADSVKGRFTISRENAKNTVYLQMNSLQPEDTAVYYCAADSLSGSAPTYYSTLEYWGQGTQVTVSS	low polyreactivity
QVQLVESGGGLVQAGGSLRLSCAASGLTFQYNAMGWYRQAPGKERELVAVISWSGGSTYYADSVKGRFTISRDNAMNTVYLQMNSLIPEDTAVYYCNAVGFVWYFDVYSYFTEFKYDYWGQGTQVTVSS	low polyreactivity
QVQLVESGGGLVQAGGSLRLSCAASGFIFWQYAMGWYRQAPGKERELVAAITSRGGSTYYADSVKGRFTISRDNAKNTVYLKMNSLKPEDTAVYYCARLYPRHLNGDYWGQGTQVTVSS	high polyreactivity
QVQLVESGGGLVQAGGSLRLSCAASGITFYYYAMGWYRQAPGKERELVAAISSGGRTYYADSVKGRFTISRDNAKNTVYLQMNSLKPEDTAVYYCAASFLVTSREYDYWGQGTQVTVSS	high polyreactivity
QVQLVESGGGLVQAGGSLRLSCAASGRIFGYNAMGWYRQAPGKERELVAAITQSGGTTYYADSVKGRFTISRDYAKNTVYLQMNSLKPEDTAVYYCARGTRYPNNPFDYWGLGTQVTVSS	high polyreactivity
QVQLVESGGGLVQAGGSLRLSCATSRSTFVLYAMGWYRQAPGKERELDAAISGGATTTYADSVKGRFTISRDNAKNTVYLQMNSLKPEVTAVYYCAADFSTYVVSGAALDYWGQGTQVTLSS	low polyreactivity
QVQLVESGGGLVQAGGSLRLSSAASGFIFPVYTMGWYRQAPGTERELLAAITQIGGSTHYADSVKGRFTISRDNAKNTVYLQMNSLKPVDTAVYYFNAVPSYGTEYDYWGQGTQVTVSS	low polyreactivity
QVQLVESGGGLVQAGGSVRISCAASGRTFWYYAMGVYIQAPRKERELLAAITGRGGSTHYADSVKGRLTISRDNAKNTVYLPMISLKPEDTAVYYCAKDHYYRFPWGTGGYRGQGTQVTVSS	low polyreactivity
